Assay results from patent US20220362330A1, “Compositions and Methods for Increasing Epithelial Barrier Function” (The Board of Trustees of the Leland Stanford Junior …, priority 2019, published 2022).

Columns and labels:
genital mucosal barrier [1] = test: Murine tissue permeability assay, low molecular weight fluorescent molecules given intravaginally; type: in vivo, mice
Description: Effects of progestins on genital mucosal barrier permeability were evaluated by intravaginally (ivag) administering 457 Da and 70 KDa-sized fluorescent molecules to mice in estrus or diestrus-stage or after DMPA or LNG treatment. Mice were grouped as follows: untreated in estrus, untreated in diestrus, DMPA treated, or LNG treated. The mice were intravaginally administered a PBS solution containing Lucifer yellow (457 Da) and Texas-Red-conjugated dextran (70 KDa). Animals were euthanized 45 minutes later to assess vaginal tissue penetration of these molecules by confocal microscopy. […] Mucosal permeability was increased moderately by diestrus, but dramatically by DMPA or LNG. Conversely, permeability increases were negligible in estrus-stage mice and mice treated with MePRDL or DMPA and RU486. This indicates exogenous progestins increase genital mucosal permeability.
To evaluate mucosal permeability to low molecular weight molecules, indicated groups of mice were sedated, and 10 μL of a PBS solution containing 62.5 μg of dextran Texas-Red® (DR) (MW=70,000 Da) and 50 μg of Lucifer yellow CH, lithium salt (LY) (MW=457.2 Da) (both from Life Technologies) administered intravaginally. 45 minutes later, mice were euthanized, and excised vaginal tissue fixed in formaldehyde. Fixed tissue was embedded in agarose, and 200-300 μm specimens were sectioned with a vibratome. After counterstaining with 4,6-diamidino-2-phenylindole (DAPI), confocal microscopy images were acquired by sequential scanning to prevent fluorescence crossover.

desmoglein-1a (DSG1a) = test: qRT-PCR of Dsg1a gene expression in vaginal tissue; type: in vivo, mice; settings: for relative expression of Dsg1a: DMPA-treated mice, His-tagged ephrins 1.5 ug/30 uL ivag; for relative expression of Dsg1a / Dsg1a gene expression in vaginal tissue: 24 h; for Dsg1a gene expression in vaginal tissue: OVX mice, single ivag dose
Description: (§1) To define progestin-mediated changes in mucosal permeability, vaginal tissue from mice in estrus, diestrus, or after DMPA or LNG treatment was used to measure expression of the desmosomal cadherins desmoglein-1a (DSG1a) and desmocollin-1 (DSC1).
(§2) Human ectocervical and murine vaginal tissues were immediately immersed in 1 mL of RNAlater® (Qiagen), stored for 24 h at 4° C., and stored long-term at −80° C. RNA isolated using the RNeasy Lipid Tissue Kit (Qiagen) using manufacturer's instructions was re-suspended in nuclease-free water and quantified using a NanoDrop spectrophotometer (Thermo Scientific). The following mouse primers were utilized: desmocollin 1 (Mm00496525_ml), desmoglein-1α (Mm00809994_s1), ephrinA3 (Mm01212723_g1) and pyruvate carboxylase (Mm00500992_ml) as housekeeping reference gene (all from Thermo Scientific). These human primers were used: desmoglein-1 (Hs00355084_m1) and glucose-6-phosphate isomerase (Hs00976711_m1) as a housekeeping reference gene. To define relative gene expression, 100 ng of RNA was mixed with TaqMan® RNA-to-Ct™ 1-Step Kit and adequate primer (final volume of 10 μL/well) using manufacturer's instructions (Life Technologies). qRT-PCR was performed using a Quantstudio3 Thermal Cycler, and data analyzed via Quanstudio Software (Applied Biosystems).

desmocollin-1 (DSC1) = test: qRT-PCR of Dsc1 gene expression in vaginal tissue; type: in vivo, mice
Description: as §1, §2

DSG1 protein = DSG1 protein levels in vaginal tissue, immunofluorescent staining and confocal microscopy; type: in vivo, mice; settings: for levels of DSG1 protein in vaginal tissue: His-tagged ephrins 1.5 ug/30 uL ivag; for levels of DSG1 protein in vaginal tissue / DSG1 protein levels in vaginal tissue: 24 h; for DSG1 protein levels in vaginal tissue: OVX mice, single ivag dose
Description: Excised mouse vaginas were formaldehyde fixed and paraffin embedded (FFPE), and 10 μm sections mounted on glass slides and de-paraffinized by sequential immersion in 100% xylene, 100% ethanol, 96% ethanol, and sterile DEPC-treated water. Antigen retrieval was performed using 10 mM sodium citrate buffer (pH 6.0) containing 0.05% Tween 20 (both Sigma-Aldrich) (20 minutes at 95° C.). After 3 PBS washes, sections were incubated overnight in 10% normal goat serum (Abcam, Cambridge Mass.) at 4° C., then incubated for 1 h at ambient temperate with rabbit anti-desmoglein-1 (clone EPR6766(B)) antibody, washed and incubated for 1 h with AlexaFluor® 488-labeled goat anti-rabbit IgG (antibodies from Abcam) (all antibodies were diluted in PBS with 1% BSA and 0.05% Tween 20). Sections were stained with DAPI and evaluated for levels of DSG1 protein (defined by calculating pixel numbers per 100 μm^2) using confocal microscopy and ImageJ software.

[2] = tested on: claudin-1, occludin, and tight junction protein 1; test: Gene expression of other cell-cell adhesion molecules in vaginal tissue; type: in vivo, mice
HSV-2 = test: Lethal genital HSV-2 infection; type: in vivo; settings: DMPA-treated mice
Description: Mice were sedated with xylazine (Lloyd Laboratories, Shenandoah Iowa) and ketamine hydrochloride (JHP Pharmaceuticals, LLC Rochester Mich.), and intravaginally infected with 10^4 plaque-forming units (pfu) of WT HSV-2 333 in 10 μL of RPMI. Mouse mortality was evaluated daily for 15 days.

HSV-1 = test: Genital HSV-1 GFP infection, virus replication in vaginal epithelium; type: in vivo, mice; settings: DMPA-treated mice
Description: Estrus-stage or DMPA-treated mice were intravaginally administered vehicle or recombinant mouse Fc-EFNA3 at 1.5 ug/30 uL 24 h prior to genital infection with 3×10^3 PFU HSV-1q GFP (fluorescent virus). Vaginal tissue was recovered 24 h after infection and evaluated for HSV-1 replication in the vaginal epithelium using confocal microscopy. […] To evaluate if treatment with rm-EphrinA3 protects mice from lethal HSV-2 infection, DMPA-treated mice were intravaginally administered Fc- or His-tagged versions of the rm-protein prior to infection. […] Because the microarray data indicated EphrinA1, EphrinA2, EphrinA3, EphrinA4, and EphrinA5 were upstream regulators of Dsg1 and Dsc1 expression in the mouse vagina, we hypothesized that capacity of EphrinA3 to increase cell-cell adhesion molecule expression may be shared by other members of the EphrinA family.

genital mucosal barrier [3] = test: Murine tissue permeability assay, low molecular weight fluorescent molecules given intravaginally; type: in vivo, mice; settings: OVX mice, single dose, vs untreated OVX mice
[4] = progestin-treated mice vs mice in estrus

## C#C[C@]1(O)CC[C@H]2[C@@H]3CCC4=CC(=O)CC[C@@H]4[C@H]3CC[C@@]21CC [LNG, reference compound]
Genital mucosal barrier [1]; confocal images, 45 minutes after ivag administration
  penetration of the 457 Da molecules into vaginal tissue: greatest penetration
Genital mucosal barrier [1]; mice, ivag Lucifer yellow (457 Da) and Texas-Red dextran (70 KDa), 45 minutes, confocal microscopy
  Mucosal permeability increase: dramatically
desmoglein-1a (DSG1a); [4]
  DSG1a gene expression in vaginal tissue: decrease gene expression levels
desmocollin-1 (DSC1); [4]
  DSC1 gene expression in vaginal tissue: decrease gene expression levels
DSG1 protein; [4]
  DSG1a protein expression in vaginal tissue: significantly reduced
[2]
  gene expression of claudin-1, occludin, and tight junction protein 1: did not alter

B1: EphrinA3: mouse recombinant EphrinA3; Fc- or His-tagged version not always specified at the place (protein, UniProt O08545 23-206, looked up)
Ephrin-A3: QGPGGALGNRHAVYWNSSNQHLRREGYTVQVNVNDYLDIYCPHYNSSGPGGGAEQYVLYMVNLSGYRTCNASQGSKRWECNRQHASHSPIKFSEKFQRYSAFSLGYEFHAGQEYYYISTPTHNLHWKCLRMKVFVCCASTSHSGEKPVPTLPQFTMGPNVKINVLEDFEGENPQVPKLEKSISG
Genital mucosal barrier [1]; DMPA-treated mice, one ivag dose of 1.5 ug/30 uL
  genital mucosal barrier function / permeability to LMW fluorescent molecules: enhanced genital mucosal barrier function
desmoglein-1a (DSG1a)
  relative expression of Dsg1a: increased relative expression
  Dsg1a gene expression in vaginal tissue: greatly improved
desmoglein-1a (DSG1a); listed as EFNA3
  Dsg1a gene expression in vaginal tissue: increases
desmocollin-1 (DSC1); OVX mice, single ivag dose, 24 h
  Dsc1 gene expression in vaginal tissue: increases
DSG1 protein; DMPA-treated mice
  levels of DSG1 protein in vaginal tissue: similarly increase
DSG1 protein; DMPA-treated mice, listed as EFNA3
  levels of DSG1 protein in vaginal tissue: increased levels of DSG1 protein
DSG1 protein
  DSG1 protein levels in vaginal tissue: greatly improved
DSG1 protein; listed as EFNA3
  DSG1 protein levels in vaginal tissue: increases
HSV-2; one ivag dose (Fc- or His-tagged) prior to lethal HSV-2 infection, compared to DMPA alone
  reduction of mortality: approximately 25%
HSV-1
  HSV-1 replication in mouse genital tissue: reduced
Genital mucosal barrier [3]
  genital mucosal barrier function (penetration of lucifer yellow, 457 Da): improved function of the genital mucosal barrier
Genital mucosal barrier [3]; listed as EFNA3
  genital mucosal barrier function (penetration of lucifer yellow, 457 Da): enhanced genital mucosal barrier function

B2: EphrinA2: Ephrin A2/EFNA2 Protein, Mouse, Recombinant (His Tag), SEQ ID NO: 17 (protein)
chain: MAPAQRPLLPLLLLLLPLRARNEDPARANADRYAVYWNRSNPRFQVSAVGDGGGYTVEVSINDYLDIYCPHYGAPLPPAERMERYILYMVNGEGHASCDHRQRGFKRWECNRPAAPGGPLKFSEKFQLFTPFSLGFEFRPGHEYYYISATPPNLVDRPCLRLKVYVRPTNETLYEAPEPIFTSNHHHHHH
modifications: His tag
desmoglein-1a (DSG1a)
  relative expression of Dsg1a: increased relative expression
DSG1 protein; DMPA-treated mice
  levels of DSG1 protein in vaginal tissue: similarly increase
DSG1 protein; DMPA-treated mice, listed as EFNA2
  levels of DSG1 protein in vaginal tissue: increased levels of DSG1 protein

B3: His-EFNA3: Ephrin A3 Protein, Mouse, Recombinant (His Tag), SEQ ID NO: 15 (protein, UniProt P52797 23-214, looked up)
Ephrin-A3: QGPGGALGNRHAVYWNSSNQHLRREGYTVQVNVNDYLDIYCPHYNSSGVGPGAGPGPGGGAEQYVLYMVSRNGYRTCNASQGFKRWECNRPHAPHSPIKFSEKFQRYSAFSLGYEFHAGHEYYYISTPTHNLHWKCLRMKVFVCCASTSHSGEKPVPTLPQFTMGPNVKINVLEDFEGENPQVPKLEKSISG
modifications: His tag
DSG1 protein; DMPA-treated mice, ivag in 10 μL of PBS, 24 hours
  levels of DSG1 protein in genital tissue: increased levels of DSG1 protein
HSV-2; 10^4 pfu of HSV-2
  survival after genital HSV-2 infection: improves the survival
